Test results from US20250213702A1.

Target: IL-2Rαβγ on mouse CTLL-2 cells (mouse) (UniProt P01590)
Test: cell-based or functional assay

Chain of UniProt P01590 (P01590 22-268, chain 1 of 3): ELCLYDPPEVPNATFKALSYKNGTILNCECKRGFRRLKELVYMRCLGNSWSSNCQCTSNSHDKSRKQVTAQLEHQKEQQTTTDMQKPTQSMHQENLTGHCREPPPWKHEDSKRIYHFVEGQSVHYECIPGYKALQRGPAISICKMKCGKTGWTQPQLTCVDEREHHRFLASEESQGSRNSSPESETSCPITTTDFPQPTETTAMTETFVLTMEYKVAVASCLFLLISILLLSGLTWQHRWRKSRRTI
Chain of UniProt P01590 (P16297 27-539, chain 2 of 3, further chain): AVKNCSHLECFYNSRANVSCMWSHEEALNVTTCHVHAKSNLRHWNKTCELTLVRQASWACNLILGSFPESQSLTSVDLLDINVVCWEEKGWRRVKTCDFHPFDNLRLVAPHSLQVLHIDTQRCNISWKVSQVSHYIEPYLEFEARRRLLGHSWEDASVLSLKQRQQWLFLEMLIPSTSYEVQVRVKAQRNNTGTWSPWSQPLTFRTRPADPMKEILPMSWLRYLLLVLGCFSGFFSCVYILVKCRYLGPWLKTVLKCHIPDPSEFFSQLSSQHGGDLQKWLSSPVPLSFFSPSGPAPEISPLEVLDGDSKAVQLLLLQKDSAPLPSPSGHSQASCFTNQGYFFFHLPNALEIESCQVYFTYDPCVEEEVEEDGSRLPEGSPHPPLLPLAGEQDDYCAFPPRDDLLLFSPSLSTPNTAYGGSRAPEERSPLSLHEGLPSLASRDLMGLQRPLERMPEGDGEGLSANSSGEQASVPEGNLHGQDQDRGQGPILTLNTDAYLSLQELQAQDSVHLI
Chain of UniProt P01590 (P34902 23-369, chain 3 of 3, further chain): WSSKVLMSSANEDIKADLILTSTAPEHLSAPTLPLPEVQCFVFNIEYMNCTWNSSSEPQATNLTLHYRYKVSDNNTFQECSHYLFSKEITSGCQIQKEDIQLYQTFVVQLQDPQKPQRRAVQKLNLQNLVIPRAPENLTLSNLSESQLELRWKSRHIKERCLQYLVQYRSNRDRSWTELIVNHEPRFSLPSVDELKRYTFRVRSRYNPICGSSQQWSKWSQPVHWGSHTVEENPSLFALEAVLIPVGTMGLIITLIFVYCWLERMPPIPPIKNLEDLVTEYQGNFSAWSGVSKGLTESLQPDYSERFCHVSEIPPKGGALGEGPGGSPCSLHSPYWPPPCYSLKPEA

- EC50 (ng/mL) of STAT5 phosphorylation assay (CTLL-2 cells): 0.38 ng/mL
- EC50 (ng/mL), STAT5 phosphorylation assay (CTLL-2 cells): 0.18 ng/mL
Substance: reference rhIL-2 (purchased from Beijing Solarbio Science & Technology Co., Ltd., catalog number: P00020) (from UniProt P60568 21-153) (ligand)
